{"source": "patent US10000775B2", "about": "“Biosynthesis of 1-undecene and related terminal olefins” (The Regents of the University of California, priority 2013, dated 2018)", "molecules": {"B1": {"name": "PFL_4321: protein of 261 amino acids from Pseudomonas fluorescens Pf-5; non-heme iron (II)-dependent enzyme converting medium-chain fatty acids into terminal olefins (protein, listed as Pseudomonas fluorescens)", "chain": "MIDTFSRTGPLMEAASYPAWTQQLIQDCSESKRRVVEHELYQRMRDNKLSAKVMRQYLIGGWPVVEQFALYMAQNLTKTRFARHPGEDMARRWLMRNIRVELNHADYWVHWSRAHGVTLEDLQAQQVPPELHALSHWCWHTSSADSLIVAIAATNYAIEGATGEWSALVCSNGIYAAAFPEEDRKRAMKWLKMHAQYDDAHPWEALEIIVTLAGLNPTKALQAELRQAICKSYDYMYLFLERCMQQEKTAVTRERLALAEG"}}, "key": {"[1]": {"tested_on": "E. coli", "assay": "1-undecene production in E. coli overexpressing PFL_4321, PFL_0203 or homologs, with or without UcFatB2", "assay_type": "cell-based", "settings": "E. coli BL21 Star (pZR60), headspace GC-MS", "description": "E. coli, P. aeruginosa PAO-1, and P. aeruginosa PA14 strains were grown in 5 mL of LB medium overnight at 37° C., while all the other Pseudomonas and Acinetobacter strains were grown at 30° C. […] The culture was shaken in a sealed 20 mL headspace vial (Agilent certified) containing a stir bar at 30° C. for 36 hr. After incubation, an SPME fiber (30 μm polydimethylsiloxane, Supelco, Sigma-Aldrich Group, Bellefonte, Pa.) was manually inserted into the headspace vial and incubated at 25° C. for 12.5 min. GC-MS analysis was conducted on a Varian CP-3800 instrument equipped with a Varian 320-MS. […] The signals of the 1-alkenes were identified and quantified by comparison with authentic samples (MP Biomedicals), which were diluted in ethyl acetate, added to 5 mL of culture medium in a sealed headspace vial, and sampled by the same SPME-GCMS method as described above.\n[…] 1-Undecene production was detected by using the SPME-GCMS method. […]\nTo investigate whether PFL_0203 was facilitating the production of 1-undecene, this gene was individually expressed in E. coli and the cells were monitored for 1-undecene production. […]"}, "[2]": {"assay": "In vitro anaerobic enzymatic assays", "assay_type": "biochemical", "description": "FIG. 6 illustrates GC-MS detection of 1-undecene production by PFL_4321 in the aerobic/anaerobic assays. The anaerobic assay was performed by using the anaerobically purified enzyme and degassed reagents, adding glucose oxidase/glucose/catalase, and conducting the experiment in an anaerobic chamber with ppm O2<0.7. The control aerobic assay was performed by using a similar reaction mixture under ambient air conditions and omitting glucose oxidase.\nAll of the reagents were bubbled with nitrogen gas and equilibrated in the anaerobic chamber overnight before use. E. coli BL21 Gold (DE3, pZR60_HRV3c) was grown, harvested, and lysed as mentioned above. The insoluble fraction was removed by centrifugation, and the soluble proteins were incubated with 1 mL of Ni-NTA beads (Qiagen) on a nutator at 4° C. for 1 hr. The proteins were then moved into the anaerobic chamber, loaded onto a gravity flow column, washed with washing buffer (50 mM imidazole, 20 mM Tris, 300 mM NaCl, pH 8.5), and eluted with eluting buffer (300 mM imidazole, 20 mM Tris, 300 mM NaCl, pH 8.5). Purified proteins were exchanged into 20 mM Tris (pH 8.5) and 300 mM NaCl by passing through a desalting column (GE Disposable PD-10), and then concentrated using Amicon Centrifugal Filter Units. The protein solution was equilibrated in the anaerobic chamber on a Thermomixer at 4° C. overnight. […]"}}}
{"molecule": "B1", "values": [{"measurement": "1-undecene produced", "setting": "[1]", "value": "~5", "unit": "µg/mL"}, {"measurement": "1-undecene production in anaerobic enzymatic assays", "setting": "[2]; anaerobic", "value": "nearly abolished"}, {"measurement": "decrease of 1-undecene production in anaerobic enzymatic assays", "setting": "[2]; anaerobic versus aerobic", "value": "more than 150 fold"}]}
